For this assay, the target named is Vκ4Len(1-22) peptide, P06312. As to the kind of experiment: EuLISA, peptide dried on the plate, 11-1F4 titrated from 100 nM.

B1: murine 11-1F4 monoclonal antibody (antibody)
chain 1: QVQLKESGPGLVAPSQSLSITCTVSGFSLSSYGVSWVRQPPGKGLEWLGVIWGDGSTNYHPNLMSRLSISKDISKSQVLFKLNSLQTDDTATYYCVTLDYWGQGTSVTVSS
chain 2: DVVMTQTPLSLPVSLGDQASISCRSSQSLVHRNGNTYLHWYLQKPGQSPKLLIYKVSNRFSGVPDRFSGSGSGTDFTLKISRVEAEDLGLYFCFQTTYVPNTFGGGTKLEIK
With B1, the EC50 is 0.5 nM.

These data come from patent publication US20160243230A1.
